Reference: patent US5763209

Assays:
Assay in all cases: cell_activity
[1] = test system: GAL4(1-147)-Egr-1(281-314) (Saccharomyces cerevisiae / Mus musculus); conditions: 1 µg effector plasmid
[2] = test system: GAL4(1-147)-Egr-1(240-330) (Saccharomyces cerevisiae / Mus musculus); conditions: GAL4-site-dependent
[3] = test system: GAL4(1-147)-Egr-1(3-281) (Saccharomyces cerevisiae / Mus musculus); conditions: GAL4-site-dependent activation; text says amino acids 1-281
[4] = test system: GAL4(1-147)-Egr-1(420-533) (Saccharomyces cerevisiae / Mus musculus); conditions: GAL4-site-dependent activation

| Substance | activity (fold repression) [1] | activity (fold repression) [2] | activity [3] | activity [4] |
| --- | --- | --- | --- | --- |
| GAL4 5 tkCAT reporter plasmid | > 5 | 10 |  |  |
| GAL4 reporter, five GAL4 sites with E1b minimal promoter |  |  | 100 fold | 5 fold |
